The target in data set [1] is thrombin (Thrombin JMI), bovine plasma (Bos taurus, UniProt P00735;P00735 318-366;367-625). Description: ELISA; 1 mM Mg2+; ELISA: 25 mM Tris, 10 mM NaCl, 1 mM MgCl2, pH 7.4, RT, 1 h; aptamers heated 95 C 10 min and refolded at RT 20 min; Kd unit (nM) from Results text. BLI: Octet RE. The note with it: protein: native; copies: 1;1.
For data set [2], the target named is thrombin (Recothrom), recombinant human (Homo sapiens, UniProt P00734;P00734 315-363;364-622). As to the kind of experiment: ELISA (apparent Kd); 1 mM Mg2+; ELISA: 25 mM Tris, 10 mM NaCl, 1 mM MgCl2, pH 7.4, RT, 1 h; aptamers heated 95 C 10 min and refolded at RT 20 min; Kd unit (nM) from Results text. BLI: Octet RE.

Among the data in publication PMC3288073, “Aptamers as a Sensitive Tool to Detect Subtle Modifications in Therapeutic Proteins” are binding result and Kd values, retold here.

Regarding TACCGTGGTAGGGAAGGTTGGAGTGTA (structured_DNA) [Aptamer 30-16/27], the binding result in data set [1] is on record as “no binding”. Also, the Kd in data set [2] is 1.54 nM.

As to GGTTGGTGTGGTTGG (structured_DNA) [Aptamer G15D], the Kd in data set [2] worked out at 1.48 nM.

For the molecule ACCCGTGGTAGGGTAGGATGGGGTGGT (structured_DNA) [Aptamer 30-38/27], in data set [1], the binding result was “no binding”. In addition, in data set [2], the Kd was 1.28 nM.

CAGTCCGTGGTAGGGCAGGTTGGGGTGACTTCGTGGAA (structured_DNA) [Aptamer 60-18/38]: the binding result in data set [1] was “no binding”. Also, the Kd in data set [2] was 1.48 nM.

B1: Aptamer 30-14 (structured_DNA)
DNA: AGATGCCTGTCGAGCATGCTGTTGTGGTAGGGTTAGGGATGGTAGCGGTTGTAGCTAAACTGCTTTGTCGACGG
Turning to B1, the binding result in data set [1] is reported as “no binding”. In addition, the Kd in data set [2] came to 2.75 nM.

B2: Aptamer 30-8 (structured_DNA)
DNA: AGATGCCTGTCGAGCATGCTGTGAATAGGTAGGGTCGGATGGGCTACGGTGTAGCTAAACTGCTTTGTCGACGGG
As for B2, the binding result in data set [1] is recorded as “no binding”. In data set [2], the Kd turned out to be 0.58 nM.
